In paper PMC9843451:

Legend:
Experiment in all cases: purified protein
Assay type in all cases: biochemical, Rhodopseudomonas palustris
purified protein [1] = substrate: CCCCCCC1CCC(=O)O1; settings: 2.5 mM bicine pH 8.3, 150 mM NaCl, 1 mM CaCl2, DMSO, error is 95% CI
purified protein [2] = substrate: O=C1CCCCO1; settings: 2.5 mM bicine pH 8.3, 150 mM NaCl, 1 mM CaCl2, DMSO, error is 95% CI
purified protein [3] = substrate: O=C1CCc2ccccc2O1; settings: 50 mM Tris pH 8, 150 mM NaCl, 1 mM CaCl2, DMSO, error is 95% CI

B1: Rpa3624 (Rhodopseudomonas palustris CGA009) (protein)
chain: MSNVRVLATDLAFPEGPVVMPDGSVVLVEIRAQQLTRVWPDGRKEVVAKVPGGPNGAALGPDGKMYICNNGGFGWFPSRGTMMPGAPAPHEYIGGSIQRVDLQSGEVETLFDKCGEHPLKGPNDLVFDKHGGLWFTDLGKRRARDMDVGAAYYIKPGMTEITEQVFGTLPLNGIGLSPDEATMYAAETPTGRLWAFDLSGPGEVKPRDVIYRGEKGKPICGLGGYQMFDSLAVEASGNVCVATLVSGCISVIAPDGTLVEQVPTGDRVTTNIAFGGPDLKTAYITLSGKGELIAMDWSRPGLPLNFLNK
Purified protein [1]
  Km: 2.36 (1.15–4.82) mM
  kcat: 135 s⁻¹
  kcat/Km: 57200 M⁻¹ s⁻¹
Purified protein [2]
  Km: 74.0 (40.7–133) mM
  kcat: 754 s⁻¹
  kcat/Km: 10200 M⁻¹ s⁻¹
Purified protein [3]
  Km: 1.85 (0.976–3.77) mM
  kcat: 308 s⁻¹
  kcat/Km: 166000 M⁻¹ s⁻¹
